In patent US20140087995A1 (published 2014):
Numbered stars: 1 amine (or outer) side, 2 acyl side, 3 side chain; on linkers, the order of the positions; unused ones are H or OH. Bridge positions count the residues as written; N and C are the ends. Side chains are listed from the residue outwards. Ends that are not written are not given here. * marks the point of attachment. C20 diacid = O=C(O)CCCCCCCCCCCCCCCCCCC(=O)*; γGlu = O=C(O)[C@H](CCC(=O)[*:2])N[*:1]; AEEA = NCCOCCOCC(=O)O

T1: human calcitonin receptor (human, UniProt P30988 25-474)
T1 construct: whole, on cells; Used as membranes prepared from the transfected cells (Assay VII); also called hCTR; hCT
T1 sequence (looked up): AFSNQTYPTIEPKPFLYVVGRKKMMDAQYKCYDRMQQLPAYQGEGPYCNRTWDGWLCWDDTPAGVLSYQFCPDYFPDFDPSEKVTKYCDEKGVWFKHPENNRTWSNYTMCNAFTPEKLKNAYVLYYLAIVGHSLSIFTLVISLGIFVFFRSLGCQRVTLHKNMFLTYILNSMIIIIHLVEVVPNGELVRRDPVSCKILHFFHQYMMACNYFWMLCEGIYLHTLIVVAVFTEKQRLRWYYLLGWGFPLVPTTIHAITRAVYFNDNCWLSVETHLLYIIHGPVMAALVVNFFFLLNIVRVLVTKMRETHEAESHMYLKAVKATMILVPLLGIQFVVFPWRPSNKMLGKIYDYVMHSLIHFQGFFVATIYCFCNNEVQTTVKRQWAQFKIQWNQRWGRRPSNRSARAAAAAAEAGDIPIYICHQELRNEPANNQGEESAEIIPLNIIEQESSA

T2: rat calcitonin receptor (rat, UniProt P32214 25-516)
T2 construct: whole, on cells; Used as membranes prepared from the transfected cells; also called rCTR; rat calcitonin (a) receptor
T2 sequence (looked up): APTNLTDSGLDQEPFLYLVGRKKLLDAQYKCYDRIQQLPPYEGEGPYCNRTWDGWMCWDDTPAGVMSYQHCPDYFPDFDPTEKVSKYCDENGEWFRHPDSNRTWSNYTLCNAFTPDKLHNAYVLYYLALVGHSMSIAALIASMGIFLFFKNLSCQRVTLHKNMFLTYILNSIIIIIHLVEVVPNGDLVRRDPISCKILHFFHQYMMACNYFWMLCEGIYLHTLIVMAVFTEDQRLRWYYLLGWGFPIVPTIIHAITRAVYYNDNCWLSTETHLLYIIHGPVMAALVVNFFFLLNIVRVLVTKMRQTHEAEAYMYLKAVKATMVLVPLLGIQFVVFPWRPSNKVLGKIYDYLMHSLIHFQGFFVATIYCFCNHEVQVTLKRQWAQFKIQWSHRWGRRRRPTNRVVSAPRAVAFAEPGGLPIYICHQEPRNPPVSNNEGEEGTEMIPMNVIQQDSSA

T3: rat amylin receptor (rat calcitonin receptor + rat RAMP 3) (rat, UniProt P32214 25-516; Q9JJ73 23-147)
T3 construct: whole, on cells; Used as membranes prepared from the transfected cells; also called rAmylin-R; rat amylin 3(a) receptor
T3 sequence (looked up) 1: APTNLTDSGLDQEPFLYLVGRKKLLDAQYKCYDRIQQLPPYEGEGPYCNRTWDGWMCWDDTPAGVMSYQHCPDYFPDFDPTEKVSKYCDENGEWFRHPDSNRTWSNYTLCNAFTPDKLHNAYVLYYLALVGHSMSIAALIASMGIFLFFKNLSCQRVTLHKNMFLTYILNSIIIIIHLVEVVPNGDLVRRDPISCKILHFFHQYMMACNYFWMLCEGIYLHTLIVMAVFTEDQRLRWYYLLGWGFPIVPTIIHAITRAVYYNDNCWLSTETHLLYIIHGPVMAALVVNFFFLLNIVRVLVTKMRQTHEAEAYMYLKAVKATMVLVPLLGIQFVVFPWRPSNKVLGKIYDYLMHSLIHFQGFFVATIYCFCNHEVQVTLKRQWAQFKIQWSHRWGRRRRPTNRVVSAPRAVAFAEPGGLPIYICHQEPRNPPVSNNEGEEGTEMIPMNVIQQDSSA
T3 sequence (looked up) 2: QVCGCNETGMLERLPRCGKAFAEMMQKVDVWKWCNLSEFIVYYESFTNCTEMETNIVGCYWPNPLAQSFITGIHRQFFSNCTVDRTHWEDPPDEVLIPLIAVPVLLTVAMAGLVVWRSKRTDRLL

B1: N^α1-[(4S)-4-carboxy-4-(19-carboxynonadecanoylamino)butanoyl]-[Glu14,Arg17,Pro21,Pro27,Pro34]-h-amylin (peptide)
peptide: {C20 diacid-γGlu}-KCNTATCATQRLAEFLRHSSPNFGAIPSSTNVGPNTY-NH2
modifications: disulfide 2-7
SMILES: CC[C@H](C)[C@H](NC(=O)[C@H](C)NC(=O)CNC(=O)[C@H](Cc1ccccc1)NC(=O)[C@H](CC(N)=O)NC(=O)[C@@H]1CCCN1C(=O)[C@H](CO)NC(=O)[C@H](CO)NC(=O)[C@H](Cc1c[nH]cn1)NC(=O)[C@H](CCCNC(=N)N)NC(=O)[C@H](CC(C)C)NC(=O)[C@H](Cc1ccccc1)NC(=O)[C@H](CCC(=O)O)NC(=O)[C@H](C)NC(=O)[C@H](CC(C)C)NC(=O)[C@H](CCCNC(=N)N)NC(=O)[C@H](CCC(N)=O)NC(=O)[C@@H](NC(=O)[C@H](C)NC(=O)[C@@H]1CSSC[C@H](NC(=O)[C@H](CCCCN)NC(=O)CC[C@H](NC(=O)CCCCCCCCCCCCCCCCCCC(=O)O)C(=O)O)C(=O)N[C@@H](CC(N)=O)C(=O)N[C@@H]([C@@H](C)O)C(=O)N[C@@H](C)C(=O)N[C@@H]([C@@H](C)O)C(=O)N1)[C@@H](C)O)C(=O)N1CCC[C@H]1C(=O)N[C@@H](CO)C(=O)N[C@@H](CO)C(=O)N[C@H](C(=O)N[C@@H](CC(N)=O)C(=O)N[C@H](C(=O)NCC(=O)N1CCC[C@H]1C(=O)N[C@@H](CC(N)=O)C(=O)N[C@H](C(=O)N[C@@H](Cc1ccc(O)cc1)C(N)=O)[C@@H](C)O)C(C)C)[C@@H](C)O
notes: Derivative of human amylin; also called compound 32
B2: N^α1-[(4S)-4-carboxy-4-(19-carboxynonadecanoylamino)butanoyl]-[His14,Arg17,Pro21,Pro27,Glu35]-h-amylin (peptide)
peptide: {C20 diacid-γGlu}-KCNTATCATQRLAHFLRHSSPNFGAIPSSTNVGSETY-NH2
modifications: disulfide 2-7
SMILES: CC[C@H](C)[C@H](NC(=O)[C@H](C)NC(=O)CNC(=O)[C@H](Cc1ccccc1)NC(=O)[C@H](CC(N)=O)NC(=O)[C@@H]1CCCN1C(=O)[C@H](CO)NC(=O)[C@H](CO)NC(=O)[C@H](Cc1c[nH]cn1)NC(=O)[C@H](CCCNC(=N)N)NC(=O)[C@H](CC(C)C)NC(=O)[C@H](Cc1ccccc1)NC(=O)[C@H](Cc1c[nH]cn1)NC(=O)[C@H](C)NC(=O)[C@H](CC(C)C)NC(=O)[C@H](CCCNC(=N)N)NC(=O)[C@H](CCC(N)=O)NC(=O)[C@@H](NC(=O)[C@H](C)NC(=O)[C@@H]1CSSC[C@H](NC(=O)[C@H](CCCCN)NC(=O)CC[C@H](NC(=O)CCCCCCCCCCCCCCCCCCC(=O)O)C(=O)O)C(=O)N[C@@H](CC(N)=O)C(=O)N[C@@H]([C@@H](C)O)C(=O)N[C@@H](C)C(=O)N[C@@H]([C@@H](C)O)C(=O)N1)[C@@H](C)O)C(=O)N1CCC[C@H]1C(=O)N[C@@H](CO)C(=O)N[C@@H](CO)C(=O)N[C@H](C(=O)N[C@@H](CC(N)=O)C(=O)N[C@H](C(=O)NCC(=O)N[C@@H](CO)C(=O)N[C@@H](CCC(=O)O)C(=O)N[C@H](C(=O)N[C@@H](Cc1ccc(O)cc1)C(N)=O)[C@@H](C)O)C(C)C)[C@@H](C)O
notes: Derivative of human amylin; also called compound 30
B3: N^ε1-[2-[2-[2-[[2-[2-[2-[[(4S)-4-carboxy-4-(19-carboxynonadecanoylamino)butanoyl]amino]ethoxy]ethoxy]acetyl]amino]ethoxy]ethoxy]acetyl]-[Arg17,Pro21,Pro27,Glu35 … (peptide)
peptide: K([AEEA-AEEA-γGlu-C20 diacid])CNTATCATQRLANFLRHSSPNFGAIPSSTNVGSETY-NH2
modifications: disulfide 2-7; N-terminus assumed
SMILES: CC[C@H](C)[C@H](NC(=O)[C@H](C)NC(=O)CNC(=O)[C@H](Cc1ccccc1)NC(=O)[C@H](CC(N)=O)NC(=O)[C@@H]1CCCN1C(=O)[C@H](CO)NC(=O)[C@H](CO)NC(=O)[C@H](Cc1c[nH]cn1)NC(=O)[C@H](CCCNC(=N)N)NC(=O)[C@H](CC(C)C)NC(=O)[C@H](Cc1ccccc1)NC(=O)[C@H](CC(N)=O)NC(=O)[C@H](C)NC(=O)[C@H](CC(C)C)NC(=O)[C@H](CCCNC(=N)N)NC(=O)[C@H](CCC(N)=O)NC(=O)[C@@H](NC(=O)[C@H](C)NC(=O)[C@@H]1CSSC[C@H](NC(=O)[C@@H](N)CCCCNC(=O)COCCOCCNC(=O)COCCOCCNC(=O)CC[C@H](NC(=O)CCCCCCCCCCCCCCCCCCC(=O)O)C(=O)O)C(=O)N[C@@H](CC(N)=O)C(=O)N[C@@H]([C@@H](C)O)C(=O)N[C@@H](C)C(=O)N[C@@H]([C@@H](C)O)C(=O)N1)[C@@H](C)O)C(=O)N1CCC[C@H]1C(=O)N[C@@H](CO)C(=O)N[C@@H](CO)C(=O)N[C@H](C(=O)N[C@@H](CC(N)=O)C(=O)N[C@H](C(=O)NCC(=O)N[C@@H](CO)C(=O)N[C@@H](CCC(=O)O)C(=O)N[C@H](C(=O)N[C@@H](Cc1ccc(O)cc1)C(N)=O)[C@@H](C)O)C(C)C)[C@@H](C)O
notes: Derivative of human amylin; also called compound 25
B4: N^α1N^α1-[(4S)-4-carboxy-4-(19-carboxynonadecanoylamino)butanoyl]-[Glu14,Arg17,Pro21,Pro27,Glu35]-h-amylin (peptide)
peptide: {C20 diacid-γGlu}-KCNTATCATQRLAEFLRHSSPNFGAIPSSTNVGSETY-NH2
modifications: disulfide 2-7
SMILES: CC[C@H](C)[C@H](NC(=O)[C@H](C)NC(=O)CNC(=O)[C@H](Cc1ccccc1)NC(=O)[C@H](CC(N)=O)NC(=O)[C@@H]1CCCN1C(=O)[C@H](CO)NC(=O)[C@H](CO)NC(=O)[C@H](Cc1c[nH]cn1)NC(=O)[C@H](CCCNC(=N)N)NC(=O)[C@H](CC(C)C)NC(=O)[C@H](Cc1ccccc1)NC(=O)[C@H](CCC(=O)O)NC(=O)[C@H](C)NC(=O)[C@H](CC(C)C)NC(=O)[C@H](CCCNC(=N)N)NC(=O)[C@H](CCC(N)=O)NC(=O)[C@@H](NC(=O)[C@H](C)NC(=O)[C@@H]1CSSC[C@H](NC(=O)[C@H](CCCCN)NC(=O)CC[C@H](NC(=O)CCCCCCCCCCCCCCCCCCC(=O)O)C(=O)O)C(=O)N[C@@H](CC(N)=O)C(=O)N[C@@H]([C@@H](C)O)C(=O)N[C@@H](C)C(=O)N[C@@H]([C@@H](C)O)C(=O)N1)[C@@H](C)O)C(=O)N1CCC[C@H]1C(=O)N[C@@H](CO)C(=O)N[C@@H](CO)C(=O)N[C@H](C(=O)N[C@@H](CC(N)=O)C(=O)N[C@H](C(=O)NCC(=O)N[C@@H](CO)C(=O)N[C@@H](CCC(=O)O)C(=O)N[C@H](C(=O)N[C@@H](Cc1ccc(O)cc1)C(N)=O)[C@@H](C)O)C(C)C)[C@@H](C)O
notes: Derivative of human amylin; also called compound 22
B5: N^α1-[(4S)-4-carboxy-4-(19-carboxynonadecanoylamino)butanoyl]-[Glu14,Arg17,Pro21,Pro28,Glu35]-h-amylin (peptide)
peptide: {C20 diacid-γGlu}-KCNTATCATQRLAEFLRHSSPNFGAILPSTNVGSETY-NH2
modifications: disulfide 2-7
SMILES: CC[C@H](C)[C@H](NC(=O)[C@H](C)NC(=O)CNC(=O)[C@H](Cc1ccccc1)NC(=O)[C@H](CC(N)=O)NC(=O)[C@@H]1CCCN1C(=O)[C@H](CO)NC(=O)[C@H](CO)NC(=O)[C@H](Cc1c[nH]cn1)NC(=O)[C@H](CCCNC(=N)N)NC(=O)[C@H](CC(C)C)NC(=O)[C@H](Cc1ccccc1)NC(=O)[C@H](CCC(=O)O)NC(=O)[C@H](C)NC(=O)[C@H](CC(C)C)NC(=O)[C@H](CCCNC(=N)N)NC(=O)[C@H](CCC(N)=O)NC(=O)[C@@H](NC(=O)[C@H](C)NC(=O)[C@@H]1CSSC[C@H](NC(=O)[C@H](CCCCN)NC(=O)CC[C@H](NC(=O)CCCCCCCCCCCCCCCCCCC(=O)O)C(=O)O)C(=O)N[C@@H](CC(N)=O)C(=O)N[C@@H]([C@@H](C)O)C(=O)N[C@@H](C)C(=O)N[C@@H]([C@@H](C)O)C(=O)N1)[C@@H](C)O)C(=O)N[C@@H](CC(C)C)C(=O)N1CCC[C@H]1C(=O)N[C@@H](CO)C(=O)N[C@H](C(=O)N[C@@H](CC(N)=O)C(=O)N[C@H](C(=O)NCC(=O)N[C@@H](CO)C(=O)N[C@@H](CCC(=O)O)C(=O)N[C@H](C(=O)N[C@@H](Cc1ccc(O)cc1)C(N)=O)[C@@H](C)O)C(C)C)[C@@H](C)O
notes: Derivative of human amylin; also called compound 33

Experiments:
[1] = target: T1, human calcitonin receptor; assay: ratio IC50 human calcitonin receptor / IC50 human amylin receptor (Assays VII and V)
Summary of the method: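 Scintillation proximity competition binding on cell membranes at 35 ng/μL with SPA beads, in 50 mM Hepes pH 7.4, 1 mM CaCl2, 5 mM MgCl₂, 0.1% OA, 0.02% Tween20. Incubated 120 min at 25° C with shaking. IC₅₀ from one-site competition fit.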

rat calcitonin receptor [2] = target: T2, rat calcitonin receptor; assay: ratio IC50 rat calcitonin receptor / IC50 rat amylin receptor (Assays VIII and VI)
[3] = target: T3, rat amylin receptor (rat calcitonin …); assay: SPA competition with 125I-rat amylin, membranes of BHK cells with rat calcitonin receptor + rat RAMP3 (Assay VI)
rat calcitonin receptor [4] = target: T2, rat calcitonin receptor; assay: SPA competition with 125I-calcitonin, membranes of BHK cells with rat calcitonin receptor (Assay VIII)

| Binder | Ratio hCT/hAmylin binding [1] | Ratio rCT/rAmylin binding (rat calcitonin receptor [2]) | IC50 [3] [nM] | IC50 (rat calcitonin receptor [4]) [nM] |
| --- | --- | --- | --- | --- |
| B1 | 10.9 | 34 | 0.176 | 5.98 |
| B2 | 23.6 | 36.1 | 3.14 | 114 |
| B3 | 56.5 | 37.7 | 3.48 | 131 |
| B4 | 12.3 | 28.5 | 2.19 | 62.5 |
| B5 | 3.9 | 12.6 | 2.29 | 28.9 |
